# Measured values taken from publication PMC3241645 (Nucleic Acids Research, 2011).
# B1: Helicobacter pylori GluRS2 (non-canonical glutamyl-tRNA synthetase 2) (enzyme, UniProt O25360 1-439, looked up)
# chain: MLRFAPSPTGDMHIGNLRAAIFNYIVAKQQYKPFLIRIEDTDKERNIEGKDQEILEILKLMGISWDKLVYQSHNIDYHREMAEKLLKENKAFYCYASAEFLEREKEKAKNEKRPFRYSDEWATLEKDKHHAPVVRLKAPNHAVSFNDAIKKEVKFEPDELDSFVLLRQDKSPTYNFACACDDLLYKISLIIRGEDHVSNTPKQILIQQALGSNDPIVYAHLPIILDEVSGKKMSKRDEASSVKWLLNQGFLPVAIANYLITIGNKVPKEVFSLDEAIEWFSLENLSSSPAHFNLKYLKHLNHEHLKLLDDDKLLELTSIKDKNLLGLLRLFIEECGTLLELREKISLFLEPKDIVKTYENEDFKERCLALFNALTSMDFQAYKDFESFKKEAMRLSQLKGKDFFKPLRILLTGNSHGVELPLIFPYIQSHHQEVLRLKA
# Legend:
# [1] = biological target: Helicobacter pylori GluRS2 (non-canonical glutamyl-tRNA synthetase 2) (Helicobacter pylori) (UniProt O25360); experiment: dynamic light scattering
# [2] = biological target: Helicobacter pylori GluRS2 (non-canonical glutamyl-tRNA synthetase 2) (Helicobacter pylori) (UniProt O25360); experiment: nanopore optical interferometry
# [3] = biological target: the molecule itself; experiment: nanopore optical interferometry
Molecule,stoichiometry N [1],"average optical path difference at plateau, 0.5 µM GatCAB [2]","average optical path difference at plateau, 2 µM GatCAB [2]","average optical path difference at plateau, 5 µM GatCAB [2]","average optical path difference at plateau, 10 µM GatCAB [2]","average optical path difference at plateau, 19 µM GatCAB [2]",binding result [3]
Helicobacter pylori GatCAB (tRNA-dependent amidotransferase) (complex),1,0.6 nm,2.2 nm,5.4 nm,10.4 nm,16.2 nm,–
B1,–,–,–,–,–,–,binds
